# Results: patent publication US20250296984A1, “THERAPEUTIC AND DIAGNOSTIC AGENTS AND USES THEREOF” (priority 2022, published 2025)
# B1: 13-5G6-1D3 rAb: recombinant antibody product of US28-13-5G6-1D3 produced in HEK293-F cells (antibody)
# heavy: EVKLVESGGGLVQPGGSLRLACATSGFTFTDYYMSWVRQPPGKALEWLGFIRSKANGYTTEYSASVKGRFTISRDNSQSILYLQMNTLRSEDSATYYCARDERRTAWLAYWGQGTLVTVSAAKTTPPSVYPLAPGSAAQTNSMVTLGCLVKGYFPEPVTVTWNSGSLSSGVHTFPAVLQSDLYTLSSSVTVPSSTWPSETVTCNVAHPASSTKVDKKIVPRDCGCKPCICTVPEVSSVFIFPPKPKDVLTITLTPKVTCVVVDISKDDPEVQFSWFVDDVEVHTAQTQPREEQFNSTFRSVSELPIMHQDWLNGKEFKCRVNSAAFPAPIEKTISKTKGRPKAPQVYTIPPPKEQMAKDKVSLTCMITDFFPEDITVEWQWNGQPAENYKNTQPIMDTDGSYFIYSKLNVQKSNWEAGNTFTCSVLHEGLHNHHTEKSLSHSPGK
# light: DVLMTQTPLSLPVSLGDQASISCRSSQSIVHSNGNTYLDWYLQKPGQSPKLLIYKVSNRFSGVPDRFSGSGSGTDFTLKISRVEAEDLGVYYCFQGSHVPTWTFGGGTKLEIKRADAAPTVSIFPPSSEQLTSGGASVVCFLNNFYPKDINVKWKIDGSERQNGVLNSWTDQDSKDSTYSMSSTLTLTKDEYERHNSYTCEATHKTSTSPIVKSFNRNEC
# Target: T1, US28 protein on CHO-US28-A1 cells (Human cytomegalovirus, UniProt P69332, D170N/D19A)
# T1 construct: expressed in transfected cells; host or cells: CHO-K1 (vector pCDH-EF1a-MCS)
# Experiment: Flow cytometry (FACS) surface binding to CHO-US28-A1 cells
# Parameters: species or system human cytomegalovirus (HCMV)
# Conditions: recombinant antibody (rAb), FIG. 7
# Source text: FIG. 2. Flowcytometry analysis showing surface binding of the US28-13-5G6-1D3 antibody clone on CHO-US28-A1 cells. From the left, blank control, 2nd antibody control and clone US28-13-5G6-1D3 Ab binding on the surface of the CHO-US28-A1 cells.
# FIG. 3. The positive surface binding of the clone US28-13-5G6-1D3 on CHO-US28-A1 cells was further validated by gradient dilution in FACS analysis. From the left, the clone US28-13-5G6-1D3 Ab surface binding to the CHO-US28-A1 cells in dilutions 1:20, 1:50, 1:200 (w/v).
# FIG. 4. The positive surface binding of the clone US28-13-5G6-1D3 on CHO-US28-A1 cells was compared with the US28 negative CHO control cells. The clone US28-13-5G6-1D3 Ab bound 15-fold more to the surface of the US28 positive CHO-US28-A1 cells than to the US28 negative CHO cells in 1:50 (w/v).
# FIG. 7. […] The surface binding of the 13-5G6-1D3 rAb to CHO cells was only measured in 1:10 dilution (w/v) and was 0.77% after removing the binding to blank and anti-mouse IgG-Alexa 488 secondary Ab controls. […]
# In a further embodiment, it is preferred that a binding molecule of the present invention binds preferentially to US28-expressing cells (such as CHO cells engineered to express US28) compared to its binding of US28-negative cells (such as wildtype CHO cells), for example, at a 1:50 (w/v) dilution, for example as determined by flow cytometry assay. […]
molecule,measurement,value
B1,fold more surface binding on CHO-US28-A1 cells than to normal CHO cells,> 21 fold
